Laboratory results as given in US20230357420A1 (VILLARIS THERAPEUTICS, published 2023).

Target: T1, Human CD122 (human, UniProt P14784 27-551)
T1 construct: also called hCD122; IL2RB
T1 sequence: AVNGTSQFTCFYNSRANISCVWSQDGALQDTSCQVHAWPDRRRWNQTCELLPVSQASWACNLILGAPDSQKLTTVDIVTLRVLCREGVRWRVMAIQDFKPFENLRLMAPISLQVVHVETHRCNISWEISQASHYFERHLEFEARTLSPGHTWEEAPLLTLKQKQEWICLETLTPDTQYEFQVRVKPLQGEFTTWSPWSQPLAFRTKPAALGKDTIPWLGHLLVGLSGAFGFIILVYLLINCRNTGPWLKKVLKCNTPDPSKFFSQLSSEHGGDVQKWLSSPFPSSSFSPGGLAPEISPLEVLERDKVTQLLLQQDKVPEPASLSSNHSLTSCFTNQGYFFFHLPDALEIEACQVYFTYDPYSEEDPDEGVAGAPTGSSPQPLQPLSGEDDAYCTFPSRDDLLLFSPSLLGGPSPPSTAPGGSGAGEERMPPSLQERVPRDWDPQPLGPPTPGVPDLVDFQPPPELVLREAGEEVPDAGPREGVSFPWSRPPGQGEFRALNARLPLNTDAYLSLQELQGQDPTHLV
Test: flow cytometry (FACS) on huIL15Rβ-transfected CHO-K1 cells, anti-human IgG-FITC, GeoMFI
Description: Purified IgGs were tested in FACs for binding to human and rhesus CD122 expressed on CHO-K1 stable cell lines and CHO-K1 wild-type cells. The IgG samples were titrated in three-fold serial dilutions starting at 500 nM to […]. Binding of IgGs was detected with a mouse anti-human IgG conjugated to FITC. Results were analyzed by examining the Mean Fluorescence Intensity (MFI) of 10000 cells per sample in the BL-1 channel detector of a flow cytometer (AttuneTM NxT Acoustic Focusing Cytometer, Invitrogen/ ThermoFisher Scientific).

EC50 (read off the curve): ~0.9 nM
B1: IgG1-MIKβ1 (humanized) (antibody, V domains shown)
VH: EVQLLESGGGLVQPGGSLRLSCAASGFSVTSYGVHWIRQAPGKGLEWLGVIWSGGSTDYNAAFISRLTISKDNSKNTVYFQMNSLQAEDTAIYYCARAGDYNYDGFAYWGQGTLVTVSS
VL: DIVLTQSPSSLSASVGDRVTITCSGSSSVSFMYWYQQRPGKAPRLLIYDTSNLASGVPSRFSGSGSGTSYTFTISSLQPEDIATYYCQQWSTYPLTFGQGTKVEVK
notes: also called VillMab-1; VillMAB-1
